In ChEMBL document CHEMBL1123197, “(beta-Chloro-alpha-aminoethyl)phosphonic acids as inhibitors of alanine racemase and D-alanine:D-alanine ligase” (J Med Chem, 1986):

How the values were obtained:
[1] = substrate: C[C@H](N)C(=O)O; test: Km value for Alanine racemase from Pseudomonas aeruginosa
[2] = substrate: NC(CCl)P(=O)(O)O; conditions: Pseudomonas aeruginosa
Description: Km for Alanine racemase from Pseudomonas aeruginosa

B1: Alanine racemase, biosynthetic (Escherichia coli K-12), P0A6B4 (protein)
chain: MQAATVVINRRALRHNLQRLRELAPASKMVAVVKANAYGHGLLETARTLPDADAFGVARLEEALRLRAGGITKPVLLLEGFFDARDLPTISAQHFHTAVHNEEQLAALEEASLDEPVTVWMKLDTGMHRLGVRPEQAEAFYHRLTQCKNVRQPVNIVSHFARADEPKCGATEKQLAIFNTFCEGKPGQRSIAASGGILLWPQSHFDWVRPGIILYGVSPLEDRSTGADFGCQPVMSLTSSLIAVREHKAGEPVGYGGTWVSERDTRLGVVAMGYGDGYPRAAPSGTPVLVNGREVPIVGRVAMDMICVDLGPQAQDKAGDPVILWGEGLPVERIAEMTKVSAYELITRLTSRVAMKYVD
Km [1]: 14.2 mM | Km [2]: 8 mM
